From article doi:10.1101/2023.08.10.552581

Experiments:
[1] = target: PAR-2 RING domain (C. elegans); assay: AUC
[2] = target: PAR-2 RING domain (C. elegans); assay: SEC-MALS

PAR-2 RING domain (domain or fragment) was tested, and the Kd [1] was 358 nM and the stoichiometry N [2] was 2.
